Test results published in patent US20080311122A1 (AstraZeneca / MedImmune, published 2008).
Residue numbers refer to the chain shown, from its start. One block for each binder: values may come before it.

Tests used:
[1] = target: T1, HMGB1 in joint lysates of adjuvant induced arthritis (AIA) rats (rat, UniProt P63159 2-215); assay: immunoprecipitation from AIA rat joint lysate, Western blot probed with biotinylated S16 (the method names G4, S6 and isotype control, the legend names S16 for lane 2)
T1 construct: also called HMGB1 from arthritis joints; AA joint lysates
T1 sequence (looked up): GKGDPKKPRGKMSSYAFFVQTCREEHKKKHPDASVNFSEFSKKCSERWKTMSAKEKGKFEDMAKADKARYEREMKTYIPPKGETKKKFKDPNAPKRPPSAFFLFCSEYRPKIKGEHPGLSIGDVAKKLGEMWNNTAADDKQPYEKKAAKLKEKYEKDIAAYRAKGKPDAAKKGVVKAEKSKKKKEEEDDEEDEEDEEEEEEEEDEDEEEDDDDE
Procedure: Immunoprecipitation and Western Blot: Anti-HMGB1 mAbs (G4 and S6) and isotype control were first biotinylated using EZ-Link Sulfo-NHS-LC-Biotin as instructed by the manufacturer (Pierce). After labeling, the mAb was tested for binding to HMGB1 by ELISA with unlabeled mAbs as controls. The biological samples, joint lysate (30 μl), was mixed with […] biotinylated G4, S6 or isotype control overnight at 4° C. in 300 μl IP buffer [containing 1×PBS, pH 7.2 (Invitrogen), 0.1% Tween 20, 0.5 M sodium chloride, 10 mM sodium butyrate, and a 1:100 dilution of Phosphatase Inhibitor Cocktail I (Sigma)]. For sepsis sera, Tween 20, sodium chloride, sodium butyrate, and Phosphatase Inhibitor Cocktail I were added to 500 μl sera with the same final concentration as IP buffer. Streptavidin Sepharose beads (GE Healthcare) were blocked in 4% BSA-PBS overnight at 4° C., then washed three times with PBS and resuspended in 1×PBS resulting in 50% slurry. The bead slurry (60 μl) was then added to the overnight mAb/sample mixture and mixed for 20 minutes at room temperature. The beads were washed once with PBS, five times with IP Buffer and then washed twice with PBS by spinning at 1000 g for two min. […] The bands were detected by LumiGlo substrate solution (KPL) after washing.

[2] = target: T2, activated HMG1 prepared from LPS stimulated THP-1 cells (human, UniProt P09429 1-215); assay: cell-based or functional assay
T2 sequence (looked up): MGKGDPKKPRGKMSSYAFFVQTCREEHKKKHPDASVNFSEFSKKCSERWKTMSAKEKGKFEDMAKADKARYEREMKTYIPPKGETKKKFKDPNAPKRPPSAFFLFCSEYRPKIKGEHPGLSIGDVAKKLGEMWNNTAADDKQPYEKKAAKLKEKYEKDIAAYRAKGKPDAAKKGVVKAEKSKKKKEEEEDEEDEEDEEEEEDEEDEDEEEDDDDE

[3] = target: T3, HMGB1 in sera of septic peritonitis mice (mouse, UniProt P63158 1-215); assay: sandwich ELISA: antibody (10 ug/ml) captured on anti-human Fc, sample added, mouse anti-HMGB1 and anti-mouse-HRP, OD 450
T3 construct: also called HMGB1 from sepsis sera (ELISA); peritonitis sera
T3 sequence (looked up): T2 sequence (looked up) with E189D, D202E
Procedure: HMGB1 Detection from Biological Samples: For detection of the HMGB1 from AA joint homogenates and peritonitis sera, sandwich ELISA was performed. Goat anti-human Fc (Pierce) 14 μg/ml in PBS was coated on Immunlon IV microtiter plate over night at 4° C. After washing and blocking with 5% milk 1 hr at room temperature, G4 or S6 in blocking buffer (10 μg/ml) were added to each well of the blocked plate. The plate was washed 1 hour later and 25 μl of AIA homogenates containing 0.8 μg/ml of HMGB1 or peritonitis sera containing 7 μg/ml of HMGB1 in 0.5 M NaCl/blocking buffer were added to the wells at two fold serial dilutions. The unbound materials were removed by washing one hr after incubation. The bound HMGB1 was detected by a mouse anti-HMGB1 antibody at 2 μg/ml followed by an anti-mouse antibody conjugated with horseradish peroxidase. Mouse peritonitis sera was obtained by heart puncture 7 days after infection with heat killed staphylococcus aureus. Joint lysate was prepared from the whole paw of AIA rats as described in Example 6 below. Human sepsis sera were purchased from a commercial source.

- binding result [1]: binds
- IC50, inhibition of native activated HMG1 stimulated IL-6 release from human PBMC [2]: 0.0389 µM
B1: anti-HMG1 antibody S16 (antibody, V domains shown)
VH: EVQLLESGGGLVQPGGSLRLSCAASGFTFSWYSMLWVRQAPGKGLEWVSYISPSGGFTNYADSVKGRFTISRDNSKNTLYLQMNSLRAEDTAVYYCARWDYNSGWYYDHWGQGTLVTVSS
VL: DIQMTQSPDTLSLSPGERATLSCRASQSVNSRNLAWYQQKPGQAPRLLIYGASTRATGIPDRFSGSVSGTEFTLTISSLQPDDFATYYCQQYNSYFTFGQGTKLEIK
notes: also called ATCC PTA-6259

- binding result [3]: binds
B2: anti-HMG1 antibody S6 (antibody, V domains shown)
VH: EVQLLESGGGLVQPGGSLRLSCAASGFTFSWYDMSWVRQAPGKGLEWVSRISPSGGYTMYADSVKGRFTISRDNSKNTLYLQMNSLRAEDTAVYYCARLEVGATSGGTAFDIWGQGTMVTVSS
VL: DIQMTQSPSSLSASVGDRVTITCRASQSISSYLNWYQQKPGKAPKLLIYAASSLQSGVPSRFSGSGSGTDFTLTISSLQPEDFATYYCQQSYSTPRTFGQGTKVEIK
notes: also called ATCC PTA-6143
